Target: T1, Human TMPRSS4 (Transmembrane protease, serine 4), wild type full length (human, UniProt Q9NRS4 1-437)
T1 construct: Type II membrane protein over-expressed on HEK293T cells (also endogenous on H1975 and LUDLU-1 cells); also called TMPRSS4 WT; HEK293T-TMPRSS4
Test: flow cytometry, monoclonal phage on HEK293T-TMPRSS4 cells;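 also: bound phage detected with a PE-labelled mouse anti-M13 monoclonal antibody, read by flow cytometry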
Description: Monoclonal phages were prepared, screened for binding to HEK293T-TMPRSS4 cells by flow cytometry. Monoclonal phage clones were incubated with HEK293T-TMPRSS4 cells, the cells were washed and then incubated with a PE conjugated mouse anti-M13 mAb, and washed again before being analyzed by flow cytometry. The positive candidates were selected based on cytometry results, then followed by next-gen sequencing of the positive hits.

T1 sequence (Q9NRS4 whole entry): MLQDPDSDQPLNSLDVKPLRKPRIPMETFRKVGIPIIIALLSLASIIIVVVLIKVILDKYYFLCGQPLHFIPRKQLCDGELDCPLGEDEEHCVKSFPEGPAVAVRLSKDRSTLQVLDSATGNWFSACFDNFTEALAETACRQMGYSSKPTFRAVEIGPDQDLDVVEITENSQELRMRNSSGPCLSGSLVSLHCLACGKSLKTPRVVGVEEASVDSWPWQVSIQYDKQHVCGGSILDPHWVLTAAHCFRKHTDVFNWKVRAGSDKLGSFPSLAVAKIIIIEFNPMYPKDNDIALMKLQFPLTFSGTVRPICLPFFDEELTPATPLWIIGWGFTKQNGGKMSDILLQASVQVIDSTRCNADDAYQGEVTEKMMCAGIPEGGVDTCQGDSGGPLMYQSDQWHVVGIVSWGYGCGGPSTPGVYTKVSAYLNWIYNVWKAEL

Binder	binding result
TMPRSS4 Ab20 scFv (VH-VL) (scFv, on monoclonal phage in the screen) scFv: QVQLVQSGAEVKKPGASVKVSCKASGYTFTRYYMHWVRQAPGQGLEWMGWMNPNSGNAGYAQKLQGRVTMTRDTSTSTVYMELSSLRSEDTAVYYCARGYNWFDPWGQGTLVTVSSGGGGSGGGGSGGGGSDIQMTQSPSSLSASVGDRVTITCRASQNIATYLSWYQQKPGKAPKLLIYGASALRSGVPSRFSGSGSGTDFTLTISSLQPEDFATYYCLQHNTYPLTFGGGTKVEIK	binds
TMPRSS4 Ab16 scFv (VH-VL) (scFv, on monoclonal phage in the screen) scFv: QVQLVQSGAEVKKPGASVKVSCKASGYTFSRHYMHWVRQAPGQGLEWMGRINPNSGGTNYAQKFQGRVTMTRDTSTSTVYMELSSLRSEDTAVYYCARSIYGDYWFDPWGQGTLVTVSSGGGGSGGGGSGGGGSDIQMTQSPSSLSASVGDRVTITCRASQSINRWLAWYQQKPGKAPKLLIYGASNLQSGVPSRFSGSGSGTDFTLTISSLQPEDFATYYCQQANSFPYTFGQGTKLEIK	binds
TMPRSS4 Ab10 scFv (VH-VL) (scFv, on monoclonal phage in the screen) scFv: QVQLVQSGAEVKKPGASVKVSCKASGYTFTSYYMHWVRQAPGQGLEWMGIINPSGAGTTYGHNFQGRVTMTRDTSTSTVYMELSSLRSEDTAVYYCARGPRDTAMVRFDYWGQGTLVTVSSGGGGSGGGGSGGGGSEIVMTQSPATLSVSPGERATLSCRASQSVSSYLAWYQQKPGQAPRLLIYGASTRATGIPARFSGSGSGTEFTLTISSLQSEDFAVYYCQQYGSSPGTFGQGTKLEIK	binds
TMPRSS4 Ab17 scFv (VH-VL) (scFv, on monoclonal phage in the screen) scFv: QVQLVQSGAEVKKPGASVKVSCKASGYTFTSYYIHWVRQAPGQGLEWMGWMSPNSGDTGYAQKFQGRVTMTRDTSTSTVYMELSSLRSEDTAVYYCARLVRGGFDYWGQGTLVTVSSGGGGSGGGGSGGGGSDIQMTQSPSSLSASVGDRVTITCRASQGISSYLNWYQQKPGKAPKLLIYAASRLQSGVPSRFSGSGSGTDFTLTISSLQPEDFATYYCQQSYRSPPTFGQGTKLEIK	binds
TMPRSS4 Ab12 scFv (VH-VL) (scFv, on monoclonal phage in the screen) scFv: QVQLVQSGAEVKKPGASVKVSCKASGYTFSNYYIHWVRQAPGQGLEWMGWINPNSGDTNYAQKFQGRVTMTRDTSTSTVYMELSSLRSEDTAVYYCARGMTWRTSAATYWGQGTLVTVSSGGGGSGGGGSGGGGSDIQMTQSPSSLSASVGDRVTITCRASQGISRWLAWYQQKPGKAPKLLIYGASNLQTGVPSRFSGSGSGTDFTLTISSLQPEDFATYYCQQSYSTPPTFGPGTKVDIK	binds
TMPRSS4 Ab22 scFv (VH-VL) (scFv, on monoclonal phage in the screen) scFv: QVQLVQSGAEVKKPGASVKVSCKASGYTFTSYYMHWVRQAPGQGLEWMGRINPHSGDADFVDKFQGRVTMTRDTSTSTVYMELSSLRSEDTAVYYCARDRRGYGGNSLDYWGQGTLVTVSSGGGGSGGGGSGGGGSDIQMTQSPSSLSASVGDRVTITCRAGQNIKRYLNWYQQKPGKAPKLLIYAASSLQSGVPSRFSGSGSGTDFTLTISSLQPEDFATYYCQQSYSSPLTFGGGTKVEIK	binds
TMPRSS4 Ab15 scFv (VH-VL) (scFv, on monoclonal phage in the screen) scFv: QVQLVQSGAEVKKPGASVKVSCKASGYTFTRYYMHWVRQAPGQGLEWMGWINPNSGVTNFAQKFQGRVTMTRDTSTSTVYMELSSLRSEDTAVYYCARVRIGWLQSPPLYWGQGTLVTVSSGGGGSGGGGSGGGGSDIQMTQSPSSLSASVGDRVTITCRASQSINTWLAWYQQKPGKAPKLLIYAASSLQSGVPSRFSGSGSGTDFTLTISSLQPEDFATYYCQQAISFPLTFGGGTKVEIK	binds
TMPRSS4 Ab46 scFv (VH-VL) (scFv, on monoclonal phage in the screen) scFv: QVQLVQSGAEVKKPGASVKVSCKASGYTFSRYFMHWVRQAPGQGLEWMGWINPNSGGTNYAQKFQGRVTMTRDTSTSTVYMELSSLRSEDTAVYYCARVRIGWLQSPPLYWGQGTLVTVSSGGGGSGGGGSGGGGSDIQMTQSPSSLSASVGDRVTITCRASQSISTWLAWYQQKPGKAPKLLIYAASSLQSGVPSRFSGSGSGTDFTLTISSLQPEDFATYYCQQSYGFPWTFGQGTKVEIK	binds
TMPRSS4 Ab18 scFv (VH-VL) (scFv, on monoclonal phage in the screen) scFv: QVQLVQSGAEVKKPGASVKVSCKASGYTFTSSGINWVRQAPGQGLEWMGWINPNSGGAKYAQRFQGRVTMTRDTSTSTVYMELSSLRSEDTAVYYCARARGYSGSKRDFQHWGQGTLVTVSSGGGGSGGGGSGGGGSDIVMTQSPDSLAVSLGERATINCKSSQSVLYSSNNKNYLAWYQQKPGQPPKLLIYWASTRESGVPDRFSGSGSGTDFTLTISSLQAEDVAVYHCQQYYNTPFTFGPGTKVDIK	binds
TMPRSS4 Ab19 scFv (VH-VL) (scFv, on monoclonal phage in the screen) scFv: QVQLVQSGAEVKKPGASVKVSCKASGYTFNRKFMHWVRQAPGQGLEWMGWMNPNNGATNYAQKFQGRVTMTRDTSTSTVYMELSSLRSEDTAVYYCARGRGYYGSGSYYGDYWGQGTLVTVSSGGGGSGGGGSGGGGSDIQMTQSPSSLSASVGDRVTITCRASQSISRYLNWYQQKPGKAPKLLIYGASNLQSGVPSRFSGSGSGTDFTLTISSLQPEDFATYYCQQSYSTPPTFGPGTKVDIK	binds
TMPRSS4 Ab1 scFv (VH-VL) (scFv, on monoclonal phage in the screen) scFv: QVQLVQSGAEVKKPGSSVKVSCKASGYTFTDYYMHWVRQAPGQGLEWMGGIIPIFGTANYAQKFQGRVTITADESTSTAYMELSSLRSEDTAVYYCAKEGANGYWGQGTLVTVSSGGGGSGGGGSGGGGSDIQMTQSPSSLSASVGDRVTITCQASQDISNYLNWYQQKPGKAPKLLIYKASSLESGVPSRFSGSGSGTDFTLTISSLQPEDFATYYCQQSSRIPPTFGQGTKVEIK	binds
TMPRSS4 Ab13 scFv (VH-VL) (scFv, on monoclonal phage in the screen) scFv: QVQLVQSGAEVKKPGASVKVSCKASGYTFTNYYMHWVRQAPGQGLEWMGWISAYNGNTNYAQKLQGRVTMTRDTSTSTVYMELSSLRSEDTAVYYCATASGWGHSNSAGYWGQGTLVTVSSGGGGSGGGGSGGGGSEIVMTQSPATLSVSPGERATLSCRASQSVNGNYLAWYQQKPGQAPRLLIYGVSSRASGIPARFSGSGSGTEFTLTISSLQSEDFAVYYCQQYGSSPYTFGQGTKVEIK	binds
TMPRSS4 Ab14 scFv (VH-VL) (scFv, on monoclonal phage in the screen) scFv: EVQLLESGGGLVQPGGSLRLSCAASGFTFSNHYMSWVRQAPGKGLEWVSAISGSGGSTYYADSVKGRFTISRDNSKNTLYLQMNSLRAGDTAVYYCARDRYRWGRGYFQHWGQGTLVTVSSGGGGSGGGGSGGGGSDIQMTQSPSSLSASVGDRVTITCRASQRISTYLNWYQQKPGKAPKLLIYSASTLQAGVPSRFSGSGSGTDFTLTISSLQPEDFATYYCQQAYSLPWTFGQGTKLEIK	binds
TMPRSS4 Ab11 scFv (VH-VL) (scFv, on monoclonal phage in the screen) scFv: QVQLVQSGAEVKKPGASVKVSCKASGGTFSNYAISWVRQAPGQGLEWVGRINPNSGGTNYAQKFQGRVTMTRDTSTSTVYMELSSLRSEDTAVYYCARGRYSSSSWGQGTLVTVSSGGGGSGGGGSGGGGSDIQMTQSPSSLSASVGDRVTITCRASQSINNYLNWYQQKPGKAPKLLIYAASSLQSGVPSRFSGSGSGTDFTLTISSLQPEDFATYYCQQSYSTKWTFGQGTKVEIK	binds
TMPRSS4 Ab2 scFv (VH-VL) (scFv, on monoclonal phage in the screen) scFv: EVQLLESGGGLVQPGGSLRLSCAASGFTFSDYYMSWVRQAPGKGLEWVSYISGSGDAIYYADSVKGRFTISRDNSKNTLYLQMNSLRAEDTAVYYCARDRSDCGGDDRFLCDGYFDLWGRGTLVSLSGGGGSGGGGSGGGGSDIQMTQSPSSLSASVGDRVTITCRASQSTNNYVNWYQQKPGKAPKLLIYAASSLQSGVPSRFSGSGSGTDFTLTISSLQPEDFATYYCQQSYSIPLTFGPGTKVDIK	binds
